# The supplement of paper PMC9732359
# ± gives the uncertainty stated by the source.
# Test: protein stability index of a GFP-peptide fusion (yeast GPS) (PSI 1-4); higher = more stable; sorted into four equal gates, so the index is relative within each strain
# Conditions: san1∆
# Summary of the method: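 Tiled yeast protein peptides of 17 residues were each joined downstream of GFP, on plasmids that also express Cherry. The pooled library was maintained in yeast, and mid-log cultures in leucine-free medium were sorted into four equal gates on the GFP/Cherry ratio. Plasmids from every gate were amplified by PCR and sequenced on Illumina, with barcodes linking reads to strains. The protein stability index of a peptide is its gate-number-weighted read frequency summed over the gates.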
row,Sequence,protein stability index
1,TDLEKKHLWDQKSLAAL [RPC17],2.94 ± 0.081

# Same assay, conditions: ubr1∆
row,Sequence,protein stability index
1,SLLTLVGSVTYQVDEDV [YJL039C/NUP192],1.23 ± 0.14
2,SLNLGIGIVEIAHENEQ [SRB8],2.08 ± 0.087
3,SLNPALQEKISTELNNK [SWI1],3.27 ± 0.083
4,SLPEFFTNRIPSKTPEV [SWI3],2.66 ± 0.059
5,SLPEGLLKSLWDYVKKN [TAF14],3.13 ± 0.093
6,SLPLIVFLRNRLKYALN [RPS4A],1.7 ± 0.043
7,SLYAYCHSKLRGQQVEN [GRR1],2.6 ± 0.097
8,SLYKVSFLEKPKFAIQD [YMR129W/POM152],2.53 ± 0.13
9,SMHLLKDWTDTFVYILE [SRB8],2.97 ± 0.059
10,SMNNDFQQQQQQQQQQQ [PGD1],2.29 ± 0.14
11,SNDEKQKAQDVDVSMQD [RPN13],3.31 ± 0.044
12,SNDIIDKPYLLRIVTHL [YDL116W/NUP84],1.93 ± 0.076
13,SNIDIRVRVTGGGHVSQ [RPS16A],2.08 ± 0.044
14,SNLSQNVVPYHRNTSDY [SWI1],2.92 ± 0.058
15,SNNDEDDKDCTIKISTN [RGR1],3 ± 0.054
16,SNRLLMDVDQFDFLDDG [YJR042W/NUP85],1.23 ± 0.099
17,SNTSTLKNMLYVLSTAV [BRR2],1.38 ± 0.059
18,SNVAAIFKGIGGNFKDL [GAL11],2.72 ± 0.1
19,SPEQIDASPDSLEALID [YCS4],3.05 ± 0.041
20,SPERFATLGIDPPKGIL [RPT1],2.77 ± 0.045
21,SPFRPLEKTSRILNFFD [YMR153W/NUP53],2.83 ± 0.07
22,SPFSITFSVYHESTSRT [YMR129W/POM152],2.33 ± 0.06
23,SPHGLINLNVDDDILII [SRB4],3.05 ± 0.045
24,SPLQSSKSKQSFTQGEL [YMR129W/POM152],2.95 ± 0.05
25,SPRVEKRSFSSTLKSFF [YOR098C/NUP1],1.92 ± 0.043
26,SPTYSPTSPAYSPTSPS [RPO21],2.93 ± 0.033

row,Sequence,protein stability index
1,SQEMVPRYFSEAINGFK [SIR3],2.94 ± 0.054
2,SQISKAEMEADSLASEL [SMC4],2.82 ± 0.16
3,SQLGGNKTVNEAAKPSL [YJL041W/NSP1],3.26 ± 0.07
4,SQQLLEILVTELTAQGY [RPN2],1.77 ± 0.066
5,SQTPKVEKTEKPKKPKG [RPS30A],2.94 ± 0.047
6,SQTTTNDSKEESTTEAT [YLR335W/NUP2],3.27 ± 0.079
7,SQVEDFTRIFLPIYDSL [SIR3],2.36 ± 0.036
8,SQVYAIRQAIAKGLVAY [RPS16A],2.42 ± 0.055
9,SRIVEIFALCIYNSTDS [YML103C/NUP188],1.2 ± 0.057
10,SRKRNEEEDAKNPLFSY [RPL31A],2.12 ± 0.043
11,SRLCTPIPVQGEIEIKP [RPN13],2.66 ± 0.1
12,SRNNTLNVTPSKRPQLG [SIR4],2.85 ± 0.073
13,SRRFKNGFQTGSAKATS [RPL37B],3.17 ± 0.059
14,SRSSSKNVNIEDITEPK [ESC2],2.98 ± 0.15
15,SRTATWLKNKFAEENIT [BRR2],1.94 ± 0.053
16,SRTGPVFDLCWNSLMYA [RRP43],2.41 ± 0.032
17,SSAADITMESVHEWEVS [PRP8],3.29 ± 0.046
18,SSDAFEKLKVNMEKEKD [YIL149C/MLP2],3.23 ± 0.062
19,SSDDLQNCWSLINDSYI [SSN8],1.74 ± 0.064
20,SSDGAYTEQFQHYKNNS [SSN2],3.06 ± 0.05
21,SSEALEAARICANKYMT [RPL10],1.29 ± 0.11
22,SSEIDRENVKSKDEPVS [SIR4],3.27 ± 0.086
23,SSEIKIYYNELQNKPDA [SIR4],3.23 ± 0.087
24,SSFYINHASMDVYNREL [BRR2],3.17 ± 0.09
25,SSGAGTVKLYLPEILNV [ECM29],1.47 ± 0.066
26,SSGVLSSNIAGTNPLSS [SSN2],3.31 ± 0.088

row,Sequence,protein stability index
1,SSIDKIEDRDFLVRYAC [SIR3],3.02 ± 0.21
2,SSIHAIGSIKEDYLGAI [RPB7],3.01 ± 0.095
3,SSIHWNNWFSLPGDMLA [SIN4],1.93 ± 0.041
4,SSKLQLTKKYSFKIFVD [RRP42],2.06 ± 0.044
5,SSKNETSKPVFSFGAAT [YLR335W/NUP2],3.06 ± 0.038
6,SSLIPHCITSITLALAD [MTR3],1.3 ± 0.083
7,SSLPPGEILLPDIADIP [SNF5],3.25 ± 0.048
8,SSLRKNASGNKRSGVIE [ITC1],2.06 ± 0.089
9,SSQKDGNDFKFNYQGDE [REC8],3.4 ± 0.058
10,SSRFKHRQEIFKDSPMD [GAL11],3.01 ± 0.076
11,SSRPNVNTTRRFQYSDD [YMR129W/POM152],2.69 ± 0.088
12,SSSAQQTKSNGTAGGNT [YJL041W/NSP1],3.28 ± 0.085
13,SSSGNTWSLILNECLKT [YML031W/NDC1],1.52 ± 0.061
14,SSTGGGLFGNKPALGSL [YGR119C/NUP57],3.41 ± 0.056
15,SSTTGMSYVVRILSTLD [RPT3],2.91 ± 0.066
16,STAFQNTPLSLPTRGTL [COR1],2.59 ± 0.035
17,STDNEAITISNSIDINY [SMC1],2.88 ± 0.039
18,STFQTRRRRLKKVEEEE [RPB4],3.36 ± 0.14
19,STGGKAPRKQLASKAAR [HHT1],3.25 ± 0.21
20,STKKDTVQLTFLIDVLK [YCG1],2.81 ± 0.068
21,STSFKNPRRLEIKDGRS [YMR153W/NUP53],3.16 ± 0.041
22,STSIQYHGISKNDNIKK [POP6],2.92 ± 0.05
23,STTASGTTATGTGLFGQ [YGR119C/NUP57],3.43 ± 0.055
24,STVQTPITASMAAALPN [PGD1],1.4 ± 0.05
25,SVGVIINKMVGNRYLEK [RPL21A],3 ± 0.095
26,SVIVSQFCAFDSSSNTY [SIN4],2.19 ± 0.074

row,Sequence,protein stability index
1,SVKDYRPAEETEAQAEP [RPS3],2.93 ± 0.043
2,SVKSVKFPTRKIYMLYS [RPC34],3.58 ± 0.25
3,SVLRDTLVAQNLKQANN [SMC4],2.33 ± 0.035
4,SVNIAFAISMGYLFKVS [ECM29],3.22 ± 0.13
5,SVNPSNKPIKRMLSSIL [SWP82],2.99 ± 0.037
6,SVREINLYMLVTTCVYL [SSN8],1.92 ± 0.047
7,SVRLQVTKILPHLIIQN [IRR1],1.7 ± 0.06
8,SVRRSGALDVEGLCIVA [RRP45],2.83 ± 0.18
9,SYAGISTDKLVQCHGSF [SIR2],2.98 ± 0.092
10,SYESLKKRKIHNGREGS [MCD1],2 ± 0.032
11,SYEYYNIKHKHTSIRET [SMC2],1.87 ± 0.049
12,SYKMIQLDAYGEKKVGS [SWP82],3.02 ± 0.072
13,TAAANTEKLSNGFSFTK [YOR098C/NUP1],2.46 ± 0.044
14,TAAIDSVVSQIEKGSTF [FAS1],2.93 ± 0.057
15,TAGVGSTPNFGGNSNKS [SIN4],3.36 ± 0.061
16,TAKPAFSFGAKPAEKNN [YJL041W/NSP1],3.4 ± 0.15
17,TALKQYEKELMGDELTR [RPN6],3.51 ± 0.12
18,TAPSSERRVLLSAPLSK [RPL26B],2.08 ± 0.044
19,TATGAASKSGKLTQKLV [CYT1],1.83 ± 0.063
20,TATIINNESSDDMDIDE [PCI8],3.31 ± 0.056
21,TDAYLDQYLWYEADQRK [PRP8],3.12 ± 0.081
22,TDDVRLAPELNQAIWKR [RPL31A],3.12 ± 0.048
23,TDLEKKHLWDQKSLAAL [RPC17],3.02 ± 0.059
